Measured values taken from paper PMC11931385, “Structural and functional analysis of cancer-associated missense variants in the retinoblastoma protein pocket domain” (The Journal of Biological Chemistry, 2025).
Residue numbers refer to the chain shown, from its start. Names and notes keep the numbering of the source. No end group written: not given here. TMR = tetramethyl rhodamine dye

B1: TMR-E2F1^TD, peptide of the E2F1 transactivation domain (peptide)
peptide: {TMR}-GEGIRDLFDCDFGDLTPLD
notes: also called E2F^TD; source: synthetic peptide, bought: GenScript
B2: TMR-E7^LxCxE, LxCxE peptide of the E7 oncoprotein from HPV (peptide)
peptide: DLYCYEQLN
modifications: also: TMR label, position not given here
notes: source: synthetic peptide, bought: GenScript

What was measured:
Assay in all cases: fluorescence polarisation; 25 °C; unlabeled Rb^P titrated against 1.5 nM TMR-E2F1^TD or 7.5 nM TMR-E7^LxCxE; 25 mM Tris pH 8.0, 200 mM NaCl, 1 mM DTT, 0.1% Tween-20; 2 min incubation; quadratic fit; apparent Kd for the variants, Kd for WT
Conditions in all cases: both partners purified
[1] = biological target: T1, Rb^P A490T (human, UniProt P06400 380-788, A490T)
T1 construct: also called variant 16
T1 sequence (looked up): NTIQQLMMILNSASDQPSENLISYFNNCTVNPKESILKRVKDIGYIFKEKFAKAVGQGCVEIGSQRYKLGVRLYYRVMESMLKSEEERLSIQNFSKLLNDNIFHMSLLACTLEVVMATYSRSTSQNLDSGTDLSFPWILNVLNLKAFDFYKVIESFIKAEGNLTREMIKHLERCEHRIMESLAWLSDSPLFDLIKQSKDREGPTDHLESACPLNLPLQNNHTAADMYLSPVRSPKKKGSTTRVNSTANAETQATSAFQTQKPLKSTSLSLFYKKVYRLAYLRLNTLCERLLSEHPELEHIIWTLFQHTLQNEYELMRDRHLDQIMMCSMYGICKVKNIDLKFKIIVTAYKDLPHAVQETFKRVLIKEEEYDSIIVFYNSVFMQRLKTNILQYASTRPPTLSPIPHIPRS

[2] = biological target: T2, Rb^P R621P (human, UniProt P06400 380-788, R621P)
T2 construct: also called variant 43
T2 sequence (looked up): T1 sequence (looked up) with T111A, R242P

[3] = biological target: T3, Rb^P H673Y (human, UniProt P06400 380-788, H673Y)
T3 construct: also called variant 55
T3 sequence (looked up): T1 sequence (looked up) with T111A, H294Y

[4] = biological target: T4, Rb^P R621C (human, UniProt P06400 380-788, R621C)
T4 construct: also called variant 41
T4 sequence (looked up): T1 sequence (looked up) with T111A, R242C

[5] = biological target: T5, Rb^P E675Q (human, UniProt P06400 380-788, E675Q)
T5 construct: also called variant 56
T5 sequence (looked up): T1 sequence (looked up) with T111A, E296Q

Binder | Kd [1] [nM] | Kd [2] [nM] | Kd [3] [nM] | Kd [4] [nM] | Kd [5] [nM]
B1 | 59 | 40 | 26 | 22 | 35
B2 | 13 | 12 | 10 | 12 | 20
